Laboratory results published in the supplement of paper PMC9112550, “Optimization of the antimicrobial peptide Bac7 by deep mutational scanning” (BMC Biology, 2022).

System: Escherichia coli TOP10
Assay: shrunken log2 fold change of peptide-encoding DNA abundance (4.5 h post-induction vs induction); higher = less antimicrobial activity (less host growth inhibition)
Conditions: time post-induction: 4.5 h; library: site-saturation at positions 5, 18, 19, 20
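Note: peptides expressed intracellularly from a pBAD plasmid library in pooled LB shake-flask culture, induced with 0.3% L-arabinose, DNA abundance read by NGS, three biological replicates, DESeq2 with apeglm shrinkage.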

| Sequence | shrunken log2 fold change |
| --- | --- |
| RRIRWRPPRLPRPRPRPFHPPRP | -0.138 |
| RRIRERPPRLPRPRPRPNQTPRP | -0.13 |
| RRIRGRPPRLPRPRPRPICVPRP | 0.269 |
| RRIRSRPPRLPRPRPRPLYPPRP | -0.813 |
| RRIRHRPPRLPRPRPRPIIIPRP | -0.247 |
| RRIRNRPPRLPRPRPRPCPMPRP | 0.151 |
| RRIRNRPPRLPRPRPRPHMEPRP | -0.145 |
| RRIRWRPPRLPRPRPRPHTNPRP | -0.283 |
| RRIRHRPPRLPRPRPRPAHWPRP | -0.179 |
| RRIRNRPPRLPRPRPRPYLEPRP | -0.00618 |
| RRIRHRPPRLPRPRPRPYPQPRP | -0.546 |
| RRIRFRPPRLPRPRPRPPEGPRP | 0.996 |
| RRIRWRPPRLPRPRPRPHLIPRP | 0.172 |
| RRIRRRPPRLPRPRPRPGCFPRP | 0.5 |
| RRIRCRPPRLPRPRPRPHAPPRP | 0.0482 |
| RRIRYRPPRLPRPRPRPGEGPRP | 0.00405 |
| RRIRYRPPRLPRPRPRPNPWPRP | -0.189 |
| RRIRTRPPRLPRPRPRPHYWPRP | -0.25 |
| RRIRNRPPRLPRPRPRPFLEPRP | 0.0329 |
| RRIRLRPPRLPRPRPRPGFHPRP | 0.0368 |
| RRIRNRPPRLPRPRPRPMCVPRP | -0.166 |
| RRIRVRPPRLPRPRPRPTRPPRP | 0.822 |
| RRIRPRPPRLPRPRPRPPSGPRP | 0.527 |
| RRIRHRPPRLPRPRPRPNCLPRP | -0.0125 |
| RRIRERPPRLPRPRPRPAIFPRP | -0.12 |

| Sequence | shrunken log2 fold change |
| --- | --- |
| RRIRTRPPRLPRPRPRPWQAPRP | 0.177 |
| RRIRGRPPRLPRPRPRPLRAPRP | 1.72 |
| RRIRSRPPRLPRPRPRPICHPRP | -0.179 |
| RRIRTRPPRLPRPRPRPTFSPRP | -0.169 |
| RRIRRRPPRLPRPRPRPMKKPRP | -0.0239 |
| RRIRVRPPRLPRPRPRPTEFPRP | -0.143 |
| RRIRFRPPRLPRPRPRPWRIPRP | -0.0447 |
| RRIRPRPPRLPRPRPRPYSAPRP | -1.14 |
| RRIRERPPRLPRPRPRPLHNPRP | -0.388 |
| RRIRWRPPRLPRPRPRPNQIPRP | -0.189 |
| RRIRQRPPRLPRPRPRPHSYPRP | 0.0443 |
| RRIRDRPPRLPRPRPRPAYRPRP | -0.0687 |
| RRIRMRPPRLPRPRPRPPPVPRP | 1.65 |
| RRIRCRPPRLPRPRPRPPCDPRP | 0.242 |
| RRIRERPPRLPRPRPRPEGYPRP | -0.00062 |
| RRIRARPPRLPRPRPRPRYCPRP | -0.15 |
| RRIRMRPPRLPRPRPRPWRSPRP | 0.166 |
| RRIRIRPPRLPRPRPRPMHRPRP | -0.262 |
| RRIRNRPPRLPRPRPRPSTGPRP | -0.266 |
| RRIRLRPPRLPRPRPRPQLMPRP | 0.0272 |
| RRIRMRPPRLPRPRPRPSKYPRP | -0.166 |
| RRIRRRPPRLPRPRPRPIMWPRP | 0.121 |
| RRIRLRPPRLPRPRPRPHYCPRP | -0.0889 |
| RRIRTRPPRLPRPRPRPQHQPRP | -0.132 |
| RRIRVRPPRLPRPRPRPSYWPRP | -0.341 |

| Sequence | shrunken log2 fold change |
| --- | --- |
| RRIRFRPPRLPRPRPRPVMFPRP | -0.218 |
| RRIRLRPPRLPRPRPRPNPFPRP | -0.334 |
| RRIRERPPRLPRPRPRPIMKPRP | -0.376 |
| RRIRFRPPRLPRPRPRPQEHPRP | -0.115 |
| RRIRLRPPRLPRPRPRPFWGPRP | -0.507 |
| RRIRGRPPRLPRPRPRPVGTPRP | 0.304 |
| RRIRFRPPRLPRPRPRPRIHPRP | -0.262 |
| RRIRGRPPRLPRPRPRPLFLPRP | 0.0673 |
| RRIRNRPPRLPRPRPRPTIMPRP | -0.0883 |
| RRIRYRPPRLPRPRPRPKGTPRP | -0.0217 |
| RRIRHRPPRLPRPRPRPVIRPRP | 0.00766 |
| RRIRLRPPRLPRPRPRPMNMPRP | -0.0334 |
| RRIRIRPPRLPRPRPRPTLDPRP | 1.36 |
| RRIRVRPPRLPRPRPRPHFGPRP | -0.0294 |
| RRIRLRPPRLPRPRPRPFRNPRP | -0.0827 |
| RRIRPRPPRLPRPRPRPLCTPRP | 1.09 |
| RRIRDRPPRLPRPRPRPEHMPRP | 0.05 |
| RRIRIRPPRLPRPRPRPGHSPRP | 0.00697 |
| RRIRQRPPRLPRPRPRPLVFPRP | -0.0658 |
| RRIRNRPPRLPRPRPRPRPNPRP | 0.135 |
| RRIRYRPPRLPRPRPRPNCNPRP | -0.962 |
| RRIRRRPPRLPRPRPRPLTFPRP | 2.56 |
| RRIRPRPPRLPRPRPRPQHYPRP | -0.675 |
| RRIRKRPPRLPRPRPRPGFEPRP | 0.32 |
| RRIRQRPPRLPRPRPRPDPLPRP | 0.00221 |
